Tested on: Escherichia coli TOP10
Assay: shrunken log2 fold change of peptide-encoding DNA abundance (4.5 h post-induction vs induction); higher = less antimicrobial activity (less host growth inhibition)
Settings: time post-induction: 4.5 h; library: site-saturation at positions 5, 18, 19, 20
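Also: peptides expressed intracellularly from a pBAD plasmid library in pooled LB shake-flask culture, induced with 0.3% L-arabinose, DNA abundance read by NGS, three biological replicates, DESeq2 with apeglm shrinkage.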

Sequence | shrunken log2 fold change
RRIRKRPPRLPRPRPRPAQSPRP | 0.0619
RRIRCRPPRLPRPRPRPMETPRP | -0.0136
RRIRLRPPRLPRPRPRPGLWPRP | 0.863
RRIRNRPPRLPRPRPRPVQSPRP | 0.00489
RRIRWRPPRLPRPRPRPNFCPRP | 0.0758
RRIRKRPPRLPRPRPRPEDIPRP | -0.00208
RRIRSRPPRLPRPRPRPSQLPRP | -0.302
RRIRFRPPRLPRPRPRPECCPRP | 0.225
RRIRGRPPRLPRPRPRPRYMPRP | -0.0195
RRIRSRPPRLPRPRPRPRAPPRP | 0.716
RRIRMRPPRLPRPRPRPLQDPRP | 2.56
RRIRYRPPRLPRPRPRPLPRPRP | 0.00472
RRIRVRPPRLPRPRPRPMACPRP | -0.147
RRIRQRPPRLPRPRPRPLECPRP | -0.184
RRIRLRPPRLPRPRPRPERKPRP | -0.0366
RRIRGRPPRLPRPRPRPLSSPRP | 0.598
RRIRMRPPRLPRPRPRPIGFPRP | -0.01
RRIRERPPRLPRPRPRPKAWPRP | 0.0873
RRIRIRPPRLPRPRPRPPCYPRP | -0.154
RRIRWRPPRLPRPRPRPLTVPRP | -0.0954
RRIRWRPPRLPRPRPRPDTTPRP | 0.255
RRIRCRPPRLPRPRPRPSRCPRP | 0.137
RRIRCRPPRLPRPRPRPIVLPRP | -0.456
RRIRPRPPRLPRPRPRPNHKPRP | -0.385
RRIRMRPPRLPRPRPRPMHEPRP | 3.07

Sequence | shrunken log2 fold change
RRIRGRPPRLPRPRPRPFDFPRP | 0.26
RRIRERPPRLPRPRPRPLKDPRP | -0.0646
RRIRCRPPRLPRPRPRPIGTPRP | -0.279
RRIRLRPPRLPRPRPRPHCDPRP | 0.00399
RRIRCRPPRLPRPRPRPDTEPRP | -0.0455
RRIRPRPPRLPRPRPRPYSNPRP | -1.31
RRIRSRPPRLPRPRPRPHGLPRP | -0.0195
RRIRTRPPRLPRPRPRPHYYPRP | -0.744
RRIRHRPPRLPRPRPRPARNPRP | 0.093
RRIRNRPPRLPRPRPRPWYTPRP | 0.0349
RRIRVRPPRLPRPRPRPTDGPRP | 0.0478
RRIRHRPPRLPRPRPRPNNLPRP | -0.596
RRIRFRPPRLPRPRPRPTDDPRP | -0.019
RRIRPRPPRLPRPRPRPLGVPRP | 0.361
RRIRQRPPRLPRPRPRPNVMPRP | -0.254
RRIRMRPPRLPRPRPRPHSYPRP | -0.0152
RRIRGRPPRLPRPRPRPAVLPRP | 0.394
RRIRTRPPRLPRPRPRPFLHPRP | -0.524
RRIRARPPRLPRPRPRPMQNPRP | 0.767
RRIRWRPPRLPRPRPRPYDDPRP | -0.321
RRIRFRPPRLPRPRPRPRFCPRP | 0.00666
RRIRPRPPRLPRPRPRPLNDPRP | -0.298
RRIRNRPPRLPRPRPRPLRSPRP | 0.119
RRIRSRPPRLPRPRPRPADKPRP | -0.254
RRIRARPPRLPRPRPRPLTVPRP | 0.242

Sequence | shrunken log2 fold change
RRIRWRPPRLPRPRPRPSRLPRP | 0.00373
RRIRMRPPRLPRPRPRPTQHPRP | 0.717
RRIRTRPPRLPRPRPRPVMLPRP | -0.157
RRIRTRPPRLPRPRPRPHLNPRP | -0.358
RRIRHRPPRLPRPRPRPKHVPRP | -0.15
RRIRGRPPRLPRPRPRPDVFPRP | 0.438
RRIRYRPPRLPRPRPRPMFPPRP | -0.463
RRIRLRPPRLPRPRPRPEWCPRP | -0.131
RRIRRRPPRLPRPRPRPMSWPRP | 0.0104
RRIRDRPPRLPRPRPRPYMTPRP | -0.0206
RRIRGRPPRLPRPRPRPPRCPRP | 0.951
RRIRLRPPRLPRPRPRPQIDPRP | 0.0696
RRIRCRPPRLPRPRPRPFEPPRP | -0.0564
RRIRNRPPRLPRPRPRPLVHPRP | 0.0443
RRIRSRPPRLPRPRPRPNKGPRP | -0.413
RRIRWRPPRLPRPRPRPGYWPRP | -0.00394
RRIRFRPPRLPRPRPRPVQHPRP | -0.044
RRIRYRPPRLPRPRPRPMSGPRP | -0.748
RRIRRRPPRLPRPRPRPINNPRP | -0.407
RRIRFRPPRLPRPRPRPGGHPRP | -0.00918
RRIRWRPPRLPRPRPRPCWHPRP | -0.259
RRIRARPPRLPRPRPRPKSAPRP | 0.709
RRIRGRPPRLPRPRPRPRGTPRP | 1.16
RRIRVRPPRLPRPRPRPEAEPRP | 0.807
RRIRNRPPRLPRPRPRPDCTPRP | 0.0531

Sequence | shrunken log2 fold change
RRIRDRPPRLPRPRPRPYSIPRP | 0.0125
RRIRCRPPRLPRPRPRPSRLPRP | 0.0589
RRIRARPPRLPRPRPRPKIKPRP | 0.0665
RRIRYRPPRLPRPRPRPMSDPRP | 0.0277
RRIRWRPPRLPRPRPRPFMQPRP | -0.261
RRIRHRPPRLPRPRPRPWPKPRP | 0.015
RRIRMRPPRLPRPRPRPEYFPRP | -0.109
RRIRQRPPRLPRPRPRPDVDPRP | -0.152
RRIRIRPPRLPRPRPRPWYCPRP | -0.0341
RRIRVRPPRLPRPRPRPRFEPRP | 0.376
RRIRMRPPRLPRPRPRPLMAPRP | 2.47
RRIRPRPPRLPRPRPRPRPQPRP | 0.634
RRIRNRPPRLPRPRPRPTCCPRP | -0.0383
RRIRYRPPRLPRPRPRPMGTPRP | -0.304
RRIRMRPPRLPRPRPRPQLLPRP | 0.0491
RRIRDRPPRLPRPRPRPMYSPRP | 0.0101
RRIRSRPPRLPRPRPRPAFWPRP | 0.651
RRIRKRPPRLPRPRPRPDGCPRP | 0.14
RRIRNRPPRLPRPRPRPWKVPRP | -1.21
RRIRCRPPRLPRPRPRPLREPRP | 0.562
RRIRTRPPRLPRPRPRPMFSPRP | -0.263
RRIRARPPRLPRPRPRPPVHPRP | 0.516
RRIRSRPPRLPRPRPRPYKGPRP | -0.186
RRIRERPPRLPRPRPRPPATPRP | 0.35
RRIRPRPPRLPRPRPRPKFSPRP | -0.125

Sequence | shrunken log2 fold change
RRIRYRPPRLPRPRPRPNKSPRP | -0.941
RRIRPRPPRLPRPRPRPLKYPRP | -0.424
RRIRWRPPRLPRPRPRPGRMPRP | 0.000663
RRIRWRPPRLPRPRPRPRGPPRP | 0.931
RRIRKRPPRLPRPRPRPPKVPRP | 0.613
RRIRCRPPRLPRPRPRPNSIPRP | -0.314
RRIRYRPPRLPRPRPRPWGSPRP | -0.482
RRIRARPPRLPRPRPRPEGDPRP | 1.39
RRIRMRPPRLPRPRPRPFRTPRP | -0.21
RRIRKRPPRLPRPRPRPPQRPRP | 1.08
RRIRVRPPRLPRPRPRPNWFPRP | 0.0817
RRIRHRPPRLPRPRPRPTWNPRP | -0.267
RRIRRRPPRLPRPRPRPYDTPRP | 0.0504
RRIRNRPPRLPRPRPRPRDIPRP | -0.138
RRIRKRPPRLPRPRPRPHCAPRP | -0.00229
RRIRSRPPRLPRPRPRPKDAPRP | 0.22
RRIRMRPPRLPRPRPRPHDTPRP | 0.048
RRIRVRPPRLPRPRPRPMIHPRP | -0.465
RRIRHRPPRLPRPRPRPKQQPRP | -0.0484
RRIRGRPPRLPRPRPRPMVIPRP | 0.329
RRIRKRPPRLPRPRPRPGFAPRP | 0.718
RRIRMRPPRLPRPRPRPRNGPRP | 0.833
RRIRMRPPRLPRPRPRPEFWPRP | 0.893
RRIRKRPPRLPRPRPRPEHMPRP | 0.829
RRIRYRPPRLPRPRPRPVLNPRP | -0.258

Reference: the supplement of paper PMC9112550, “Optimization of the antimicrobial peptide Bac7 by deep mutational scanning” (BMC Biology, 2022)
